# The RNAGym collection of RNA variant scans (doi:10.1073/pnas.2313332121)
# B1: TPR t1 (parent)
# chain: GACCAAUCUGCCCUCAGAGCUCGAGAACAUCUUCGGAUGCAGAGGAGGCAGGCUUCGGUGGCGCGAUAGCGCCAACGUCCUCAACCUCCAAUGCAUCCCACCACAUGAUGAUGCCUGAAGAGCCUUGGUUUUUUG
# Variants of: B1
# Experiment: polymerase ribozyme fitness, log enrichment relative to wild type (log ratio); higher = more active; in vitro selection for triplet polymerase activity
# Method in brief: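 Fitness measures genotype enrichment against wild-type enrichment on a logarithmic scale, with inverse-variance-weighted averaging of replicates. The logarithm is base 2, and genotypes were kept only with ≥10 input reads and ≥1 read per output in Illumina sequencing. The sequenced libraries came from one triplicate in vitro selection round, including frozen incubation at −7 °C, of PCR-built, transcribed mutant libraries of each subunit of a heterodimeric triplet polymerase ribozyme.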
row,Variant,polymerase ribozyme fitness (log ratio)
1,G45U G93C C124G,0.153
2,A46C G128C,-3.42
3,G47A A50G,-1.37
4,A46G C104A G113A,-2.84
5,A46U G52U C104U G110A,-3.02
6,A46C C56A,-1.56
7,A46U C72G A83G G117A U133G,-3.93
8,G47A C49A G60C G93A G113C G127U,-6.14
9,A46U C73G G77A G127C,-3.61
10,G47A C56U A105U,-2.73
11,A46G A74G U92C,-0.91
12,A46U U112A C123A,-1.26
13,A46C C114U U130G,-3.02
14,G47A C123G,0.634
15,A46U U78C C82G,-1.76
16,G45U G57U A118U,-0.288
17,A46C C101G,-2.34
18,G47A C101U,-1.23
19,G47A C101A,-1.93
20,G47A A50U G61U,-0.935
21,A46G G48A C64A,-6.8
22,A46U G113A,-1.78
23,A46U U132A,-1.18
24,G45U C101U G113A,-2.93

row,Variant,polymerase ribozyme fitness (log ratio)
1,G45U G47U C53A G57A G58U C86A,-2.17
2,A46G C62U G117U,-3.06
3,A46U C73G A74G U96A,-4.63
4,A46G C86G C101A C114U,-4.69
5,A46C U78A,-0.208
6,A46C U87G A100U,-0.0504
7,A46C G69A,-2.87
8,G47A G57U G69U G117A U133G,-1.83
9,A46U U81C C101G,-4.31
10,G47A C82G,-1.3
11,G47A C70U G77U G93A,-3.29
12,G45U C123G,-0.391
13,G45U C123A,-0.805
14,A46C A100G,-4.28
15,A46U A74G C101A,-3.42
16,A46C U78C C101G,-2.77
17,G47A G57C A121U G135U,1.05
18,G45U U129G U132A,-3.85
19,A46G G58A A83C G107U A121C,-4.18
20,A46G G69U U78A C94U C115A G127C,-2.24
21,A46U G60C C114A,-2.44
22,G47A C62A G120A U126A,-3.07
23,A46U U87G G93A C98U,-1.2
24,G47A C53G C85A C89A A91C C94A U116C G120C,-5.21

row,Variant,polymerase ribozyme fitness (log ratio)
1,A46U C82A C86U G110U U131A,-4.27
2,A46U G77A G127C,-2.57
3,G47A C53G C73U C86U,-0.0372
4,G45U U78C C79A C123A U126C,-3.45
5,G47A C86A,-0.754
6,A46C G69A C72A,-4.32
7,A46U C53A C73A,-0.67
8,A46G G71A C80A U129C,-5.8
9,G47A A111U,-4.17
10,A46U C73U G110A,-2.67
11,G47A G61C U81C C86A U129C,-4.11
12,G47A A50U C80A C88U A111G,-4.88
13,G47A G51A U130A,-4.79
14,A46C C56U C72U U78A A90G C94U A111C,-0.367
15,A46C C79A C85G,-5.69
16,A46G G69C,-2.16
17,A46U A74U U87G G93A C98U,-2.38
18,G47A C62U G113U,-4.52
19,A46U U59C U109A,-5.97
20,A46G C86A G120C,-0.884
21,A46C C72U,-1.13
22,A46C C72A,0.257
23,G45U G63U C101G U112A,-2.32
24,G45U G63A C79A A83G,-6.05

row,Variant,polymerase ribozyme fitness (log ratio)
1,A46C G61A C80A,-3.96
2,A46U C70A,-2.18
3,A46U C70U,-1.31
4,G45U G58A C86U A95C,-3.29
5,A46U C49U U92A U106A,-7.34
6,A46U A84C C104A G128U,-4.76
7,A46G C80U C94U,-1.95
8,A46C U125A,-1.48
9,A46U A95G C115U G128A,-4.98
10,A46U C73U C82U G93U G110U,-3.63
11,A46U G71A C85G G122A,-5.93
12,A46G C56U,-0.0715
13,A46G C56A,-0.525
14,A46G C56G,0.084
15,G47A C76G C114G,-3.13
16,A46U G60A,-1.55
17,A46U C82U G93U G110U,-3.55
18,G47A C72G G113U G122A G127U,-4.96
19,G47A C49A G60C G128C,-4.7
20,A46G U87C,0.254
21,A46G G60U C94U,-1.81
22,G45U G52A U96G,-2.98
23,A46U A50U G61U U125C,-4.52
24,G47A C86A G113A,-2.16

row,Variant,polymerase ribozyme fitness (log ratio)
1,A46G C49A C56A A66C,-2.64
2,A46C C72U U78C G93U G122A U133G,-3.05
3,A46G G48A,-0.934
4,G45U G128U,-2.42
5,A46C C53U U54G G120U,-0.194
6,A46U C88U A103G,-7.61
7,G45U G47C G52A A83U C124U,-3.57
8,A46U C72U,-1.53
9,A46U C80A,-4.71
10,A46U C88U,-1.61
11,A46U C49U A74U C102U,-4.53
12,A46U C56U C101U,-1.33
13,G45U G51U C62U U78C C80G,-4.39
14,G47A C73G U125A G128A,-3.1
15,A46G A68U C114G,-5.84
16,A46U C73A,-1.49
17,A46U C64U C114U,-2.92
18,G45U G60C U78G,-3.53
19,A46U C49A,-0.332
20,A46U C49G,-1.75
21,G47A C94G C101U,-2.16
22,A46C A50U G71U,-1.86
23,A46C C79A G120A,-1.25
24,A46G G69A G110A,-4.77

row,Variant,polymerase ribozyme fitness (log ratio)
1,G47A C82U C86G,-0.151
2,A46U C64U,-2.1
3,A46U G63A C86U,-2.45
4,A46U U54G C82A G110U,-3.02
5,G47A G60C G71U A119U,-6.29
6,A46G U55C C70U A100U G127A,-2.53
7,A46C U126G,-2.07
8,G47A G48C G52U C62G C79U,-5.83
9,A46U C56U C72G C123G,-3.53
10,A46U C62U C94G U131G,-4.7
11,A46C G48A G51A,-3.51
12,G47A A90G A103C G120C,-4.22
13,A46U U131G,-1.62
14,G45U G52U U54C G58C G60C,-0.884
15,A46U G120A,-0.14
16,A46U G63U A83U G110U,-6.56
17,A46U G61U A111G,-0.291
18,G47A C64U,-2.13
19,A46G A121U U126A,0.577
20,A46G G60A,0.0971
21,G47A A50U C73U C124U U132A,-0.0565
22,A46G C49U C86A G93A,-2.56
23,A46G U106A,0.118
24,A46C C53A G60U C102U,-3.11

row,Variant,polymerase ribozyme fitness (log ratio)
1,A46U C80U A103U A121U G135A,-5.5
2,A46C A100C C115U U129A,-5.33
3,G47A C62A C70A,-4.43
4,A46C U112A,0.587
5,A46C C76G G122A,-1.33
6,G47A C56U U112A,0.663
7,A46G C79A A91U A105U C124A U125A,-6.73
8,A46U C79U,-2.22
9,G45U G63C C104U,-0.927
10,A46U C85U,-2.5
11,A46U C56G U78G C85U,-1.84
12,A46U C49G C70U A84C,-2.21
13,A46U G52U,-2.32
14,A46U G93A,-1.93
15,A46G C72U C73G G117C,-4.79
16,A46U G57C C79U C85A G120U,-3.83
17,A46C G69C C85A,-3.49
18,A46U U59C C101U A121U,0.445
19,G47A C115A,-1.2
20,A46G C56A A84C C104A C115U A118U A119U,-3.57
21,G45U G57C A118U,-0.526
22,A46U G65C,-7.92
23,A46U G65A,-4.9
